Data on 4 compounds can be found in paper PMC7018516, “Structure of the AAA protein Msp1 reveals mechanism of mislocalized membrane protein extraction” (eLife, 2020).

The stoichiometry N is the number of molecules, sites or subunits per partner or assembly.

Assay [1] addresses Δ30-Msp1^E214Q (Walker B mutant of the cytosolic domain of Chaetomium thermophilum Msp1) (Chaetomium thermophilum). The assay can be described thus: cryo-EM structure; Δ30-Msp1^E214Q at 50–100 μM with 2 mM ATP and 2 mM MgCl2, 25 mM HEPES pH 7.5, 300 mM NaCl, 1 mM DTT, 2.5% glycerol; subunit with subunit; hexamer and larger oligomer classes.
Assay [2] shares this target. The description is as above. This is another data set of the same source.
For assay [3] the target is unchanged. The experiment in a line: SEC; gel filtration of the purified protein in Msp1 lysis buffer (25 mM HEPES pH 7.5, 300 mM NaCl, 1 mM DTT, 2 mM MgCl2); self-association. A general note: Size exclusion chromatography separates by hydrodynamic size, large species first.
For assay [4], the target named is T1, Δ30-Msp1 (Thermochaetoides thermophila, UniProt G0S654, E214Q).
T1 construct: gene CTHT_0034230; cytosolic domain lacking the 30-residue N-terminal membrane anchor; GST tag removed by thrombin; expressed in E. coli BL21(DE3); homohexamer with trapped endogenous E. coli peptide in the pore
T1 sequence (G0S654 entry or part of it E214Q): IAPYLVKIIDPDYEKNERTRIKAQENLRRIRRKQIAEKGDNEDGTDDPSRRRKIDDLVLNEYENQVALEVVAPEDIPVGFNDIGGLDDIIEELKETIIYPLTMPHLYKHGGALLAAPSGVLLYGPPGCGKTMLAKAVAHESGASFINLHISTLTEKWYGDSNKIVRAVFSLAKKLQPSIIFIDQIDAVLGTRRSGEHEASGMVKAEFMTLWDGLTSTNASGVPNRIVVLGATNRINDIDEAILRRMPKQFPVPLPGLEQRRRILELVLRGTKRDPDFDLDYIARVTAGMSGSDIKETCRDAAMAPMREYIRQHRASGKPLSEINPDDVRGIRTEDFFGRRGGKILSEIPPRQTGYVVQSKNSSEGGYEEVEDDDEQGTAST
The experiment in a line: cryo-EM structure of complex. As to conditions: 2 mM ATP, 2 mM MgCl2, pH 7.5; subunits M1-M5; nucleotide-binding pocket; Walker B mutant, hydrolysis inactive.

Assay [5] concerns the target T2, Δ30-Msp1 (Thermochaetoides thermophila, UniProt G0S654).
T2 construct: gene CTHT_0034230; cytosolic domain lacking the 30-residue N-terminal membrane anchor; GST tag removed by thrombin; expressed in E. coli BL21(DE3); homohexamer with trapped endogenous E. coli peptide in the pore
The assay can be described thus: cryo-EM structure of complex. As to conditions: 5 mM ADP•BeFx, 5 mM MgCl2, pH 7.5; ADP without BeFx in subunit M5; nucleotide-binding pocket; substrate peptide in pore.

Assay [6] addresses Δ30-Msp1 (cytosolic domain of Chaetomium thermophilum Msp1 lacking its 30 amino acid N-terminal membrane anchor) (Chaetomium thermophilum). The experiment in a line: SEC; gel filtration of the purified protein in Msp1 lysis buffer (25 mM HEPES pH 7.5, 300 mM NaCl, 1 mM DTT, 2 mM MgCl2); self-association.
For assay [7] the target is unchanged. The experiment in a line: cryo-EM structure; Δ30-Msp1 at 50–100 μM with 5 mM MgCl2 and 5 mM ADP•BeFx, 25 mM HEPES pH 7.5, 300 mM NaCl, 1 mM DTT, 2.5% glycerol; subunit with subunit; open and closed conformations.

T2 sequence (G0S654 entry or part of it, stated change not applied): as the sequence (G0S654 entry or part of it E214Q) above, with Q184E counted along it

Consider “Δ30-Msp1^E214Q (Walker B mutant of the cytosolic domain of Chaetomium thermophilum Msp1) (enzyme)”, for which the stoichiometry N is 7 in assay [1], 6 in assay [2] and greater than 6 in assay [3].

On to `Nc1ncnc2c1ncn2[C@@H]1O[C@H](COP(=O)(O)OP(=O)(O)OP(=O)(O)O)[C@@H](O)[C@H]1O` [ATP], for which the “cryo-EM structure of complex” value in assay [4] is listed as “In Δ30-Msp1^E214Q, M1-M5 display clear density for ATP”.

In the case of `Nc1ncnc2c1ncn2[C@@H]1O[C@H](COP(=O)(O)OP(=O)(O)O)[C@@H](O)[C@H]1O` [ADP], in assay [5], the “cryo-EM structure of complex” value is “M1 -M4 were bound to ADP•BeFx (mimicking the ATP state), M5 was bound to ADP”.

Consider “Δ30-Msp1 (cytosolic domain of Chaetomium thermophilum Msp1 lacking its 30 amino acid N-terminal membrane anchor) (enzyme)”, for which the stoichiometry N in assay [6] and in assay [7] was 6 throughout.
